The target in test [1] is HA-MC4R G34A (novel rare variant, 101G>C) (human) (UniProt P32245).
Test [2] addresses HA-MC4R (wild-type melanocortin 4 receptor, 3x HA tagged) (human) (UniProt P32245).

Regarding “α-melanocyte stimulating hormone (peptide)”, the α-MSH EC50 for cAMP production (cAMP immunoassay dose-response, HEK cells stably expressing the receptor, three independent immunoassays) in test [1] was found to be 43 nM; in test [2], 41.1 nM.

Source of the values: paper PMC3976318.
